Reference: patent US20110243929A1 (MEDLMMUNE, published 2011)
Several values for one entry are separate records, joined by “and”; a condition that tells them apart may be missing. Equal values may be shown once. Values belong to the binder of their own block, whether it stands above or below them.

Columns and labels:
[1] = target: T1, cynomolgus FcγRIIIA, recombinantly expressed extracellular domain (cynomolgus, UniProt Q8SPW2 17-208); experiment: BIAcore 3000; IgG immobilized on CM5 chip, soluble FcγR extracellular domain injected; equilibrium 1:1 binding isotherm
T1 construct: extracellular domain; also called cynomolgus FcgRIIIa
T1 sequence (Q8SPW2 17-208): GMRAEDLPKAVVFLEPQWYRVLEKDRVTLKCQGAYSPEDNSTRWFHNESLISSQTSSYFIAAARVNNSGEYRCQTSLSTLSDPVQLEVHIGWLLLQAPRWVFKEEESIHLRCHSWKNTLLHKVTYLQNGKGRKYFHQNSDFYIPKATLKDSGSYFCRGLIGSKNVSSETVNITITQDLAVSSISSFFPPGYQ
Description: (§1) The measurements are performed according to standard protocols. Briefly, all IgGs are immobilized onto separate flow cells of two CM5 sensor chips using standard amino coupling chemistry as recommended by the manufacturer. […] Stock solutions of the recombinantly expressed extracellular domains of all FcγRs at either 4000 or 16000 nM are prepared and then serially diluted down to the desired concentrations using the instrument buffer (50 mM HBS buffer containing 0.01 M HEPES, pH 7.4, 0.15 M NaCl, 3 mM EDTA and 0.005% P-20). Duplicate injections of each concentration of FcγR ared then injected over all of the IgG surfaces at a flow rate of 5 μL/min. Binding data are collected for approximately […], followed by a 30 sec. pulse of 5 mM HCl between injections to regenerate the IgG surfaces. Several buffer injections are also interspersed throughout the injection series. One of these buffer injections is used along with the reference cell data to correct the raw data sets. After all binding data is collected, individual data sets are averaged for each y concentration, then fit to a 1:1 binding isotherm from which the equilibrium binding constants, KD, are derived. Analysis is carried out using the BIAevaluation software.

Human FcγRIIa = target: T2, Human FcγRIIa (human, UniProt P12318); experiment: as above
T2 construct: extracellular domain
T2 sequence (extracellular domain, looked up): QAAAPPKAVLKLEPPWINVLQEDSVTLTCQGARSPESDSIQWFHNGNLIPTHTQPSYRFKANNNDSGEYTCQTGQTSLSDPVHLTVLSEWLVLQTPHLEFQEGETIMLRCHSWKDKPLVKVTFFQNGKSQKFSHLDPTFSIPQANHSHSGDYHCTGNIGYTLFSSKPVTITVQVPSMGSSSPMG
Description: as §1

Human FcγRIIb = target: T3, Human FcγRIIb (human, UniProt P31994); experiment: as above
T3 construct: extracellular domain; Only the IC9G1-aFuc cell is filled
T3 sequence (extracellular domain, looked up): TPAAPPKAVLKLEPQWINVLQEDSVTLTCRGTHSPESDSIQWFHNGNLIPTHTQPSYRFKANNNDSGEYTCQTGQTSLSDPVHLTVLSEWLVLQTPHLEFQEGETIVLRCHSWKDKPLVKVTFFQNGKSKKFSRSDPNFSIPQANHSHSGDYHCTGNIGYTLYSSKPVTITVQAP
Description: as §1

Cynomolgus FcγRIIb = target: T4, Cynomolgus FcγRIIb (Macaca fascicularis, UniProt A0A140HDP4); experiment: as above
T4 construct: extracellular domain
T4 sequence (extracellular domain): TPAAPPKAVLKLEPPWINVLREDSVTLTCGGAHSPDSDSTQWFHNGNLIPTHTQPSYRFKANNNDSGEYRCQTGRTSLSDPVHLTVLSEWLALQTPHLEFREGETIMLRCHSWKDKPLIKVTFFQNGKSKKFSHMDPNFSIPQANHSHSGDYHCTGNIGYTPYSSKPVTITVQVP
Description: as §1

Cynomolgus FcγRIIa = target: T5, Cynomolgus FcγRIIa (Macaca fascicularis, UniProt A0A140HDN0); experiment: as above
T5 construct: extracellular domain
T5 sequence (extracellular domain): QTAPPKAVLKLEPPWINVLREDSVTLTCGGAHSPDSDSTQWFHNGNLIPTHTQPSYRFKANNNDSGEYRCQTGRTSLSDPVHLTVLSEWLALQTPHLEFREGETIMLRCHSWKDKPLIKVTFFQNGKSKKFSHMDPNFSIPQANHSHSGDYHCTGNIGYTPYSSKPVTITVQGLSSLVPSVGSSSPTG
Description: as §1

cynomolgus ICOS [2] = target: T6, cynomolgus ICOS (cynomolgus, UniProt A0A2K5TQR6 21-168); experiment: cell-based or functional assay
T6 sequence: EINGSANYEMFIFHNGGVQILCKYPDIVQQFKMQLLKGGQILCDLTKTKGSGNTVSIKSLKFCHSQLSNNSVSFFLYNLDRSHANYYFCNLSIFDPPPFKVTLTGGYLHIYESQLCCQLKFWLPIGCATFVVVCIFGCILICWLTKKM

human ICOS = target: T7, human ICOS (human, UniProt Q9Y6W8 21-199); experiment: cell-based or functional assay
T7 sequence: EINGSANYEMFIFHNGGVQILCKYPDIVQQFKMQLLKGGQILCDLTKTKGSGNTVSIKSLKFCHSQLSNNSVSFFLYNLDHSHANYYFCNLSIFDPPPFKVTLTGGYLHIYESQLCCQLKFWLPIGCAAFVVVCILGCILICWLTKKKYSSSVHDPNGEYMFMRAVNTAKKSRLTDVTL

cynomolgus ICOS [3] = target: T6, cynomolgus ICOS; experiment: cell-based or functional assay; remark: listed apart in the source
cynomolgus ICOS [4] = target: T6, cynomolgus ICOS; experiment: cell-based or functional assay; remark: listed apart in the source

Kd [1]: 21 nM
Kd (Human FcγRIIa): 2010 nM
Kd (Human FcγRIIb): 14000 nM
Kd (Cynomolgus FcγRIIb): 1950 nM
Kd (Cynomolgus FcγRIIa): 3140 nM
EC50 of ADCC activity (isolated human NK effector cells, 2:1, overnight) (cynomolgus ICOS [2]): 0.0146 nM and 0.0171 nM
EC50 of ADCC activity (isolated human NK effector cells, 2:1, overnight) (human ICOS): 0.0082 nM
B1: IC9G1-aFuc (afucosylated IC9G1 antibody composition) (antibody, human IgG1, kappa)
heavy: not shown
light: DIQMTQSPSSVSASVGDRVTITCRASQGISRLLAWYQQKPGKAPKLLIYVASSLQSGVPSRFSGSGSGTDFTLTISSLQPEDFATYYCQQANSFPWTFGQGTKVEIKRTVAAPSVFIFPPSDEQLKSGTASVVCLLNNFYPREAKVQWKVDNALQSGNSQESVTEQDSKDSTYSLSSTLTLSKADYEKHKVYACEVTHQGLSSPVTKSFNRGEC
modifications: chain 1 pos 305 (Asn297, EU numbering): complex N-glycoside-linked sugar chain without fucose on the reducing-end N-acetylglucosamine, written N
notes: Same polypeptides as IC9G1 (JMab-136 VH/VK, human IgHγ1 constant region, kappa); also called IG9G1-aFuc; ICG91-aFuc; copies: 2 + 2
EC50 of ADCC (% cytotoxicity; human NK effector cells, isolated cynomolgus mesenteric lymph node T cells as targets) (cynomolgus ICOS [3]): 0.0024 µg/mL
EC50 of ADCC (% cytotoxicity; human NK effector cells, isolated cynomolgus splenic T cells as targets) (cynomolgus ICOS [4]): 0.00205 µg/mL

Kd [1]: 394 nM
Kd (Human FcγRIIa): 3310 nM
Kd (Cynomolgus FcγRIIb): 2370 nM
Kd (Cynomolgus FcγRIIa): 5280 nM
EC50 of ADCC activity (isolated human NK effector cells, 2:1, overnight) (cynomolgus ICOS [2]): 0.236 nM and 0.198 nM
EC50 of ADCC activity (isolated human NK effector cells, 2:1, overnight) (human ICOS): 0.0604 nM
B2: IC9G1 (anti ICOS antibody comprising JMab-136 VH and VL domains and the IgHγ1 constant region) (antibody, human IgG1, kappa)
heavy: not shown
light: B1 light
notes: The rest is a human IgHγ1 constant region (IgG1) and a human IgLK (kappa) constant region; copies: 2 + 2
EC50 of ADCC (% cytotoxicity; human NK effector cells, isolated cynomolgus mesenteric lymph node T cells as targets) (cynomolgus ICOS [3]): 0.0278 µg/mL
EC50 of ADCC (% cytotoxicity; human NK effector cells, isolated cynomolgus splenic T cells as targets) (cynomolgus ICOS [4]): 0.0331 µg/mL
